# Reference: FireProtDB (doi:10.1021/bi010636i)
# “And” between values parts separate entries of the source, which are not always exact repeats. Equal values may be shown once.
# B1: Cytochrome b5 type B, P04166 (parent)
# chain: MATPEASGSGRNGQGSDPAVTYYRLEEVAKRNTAEETWMVIHGRVYDITRFLSEHPGGEEVLLEQAGADATESFEDVGHSPDAREMLKQYYIGDVHPNDLKPKDGDKDPSKNNSCQSSWAYWIVPIVGAILIGFLYRHFWADSKSS
# Variants of: B1
# Conditions: Rattus norvegicus, pH 7, CD, potassium phosphate buffer, transition: 2, reversible: yes, structure 1B5M, whole UniProt chain shown; for denaturant midpoint (higher = more stable): 25 °C, GdnHCl; for Tm / change of melting temperature, mutant - wild type (higher = more stable): Thermal
Variant,denaturant midpoint (higher = more stable),Tm,"change of melting temperature, mutant - wild type (higher = more stable)"
A34S I48L L63R,3.34 M and 3.33 M,81.8 °C,-5.2 °C
I48L,3.93 M and 3.91 M,85.7 °C,-1.3 °C
A34S L63R,3.56 M and 3.52 M,83.3 °C,-3.7 °C
